Test results as given in article PMC3816843.
Like-named read-outs stand apart in the source and are kept apart here.

Tests used:
[1] = molecular target: T1, Factor XIIa (alpha-FXIIa) (UniProt P00748;P00748 20-372;373-615); assay: nitrocellulose filter binding
T1 sequence 1: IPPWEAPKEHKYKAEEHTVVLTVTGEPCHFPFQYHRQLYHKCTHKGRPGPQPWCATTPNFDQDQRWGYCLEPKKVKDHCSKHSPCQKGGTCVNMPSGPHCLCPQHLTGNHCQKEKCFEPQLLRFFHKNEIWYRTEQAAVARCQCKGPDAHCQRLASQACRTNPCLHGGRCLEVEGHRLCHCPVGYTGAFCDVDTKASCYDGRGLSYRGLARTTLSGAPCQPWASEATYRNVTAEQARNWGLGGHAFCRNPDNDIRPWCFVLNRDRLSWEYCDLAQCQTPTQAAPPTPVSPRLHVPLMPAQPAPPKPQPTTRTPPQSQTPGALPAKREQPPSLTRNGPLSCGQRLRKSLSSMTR
T1 sequence 2: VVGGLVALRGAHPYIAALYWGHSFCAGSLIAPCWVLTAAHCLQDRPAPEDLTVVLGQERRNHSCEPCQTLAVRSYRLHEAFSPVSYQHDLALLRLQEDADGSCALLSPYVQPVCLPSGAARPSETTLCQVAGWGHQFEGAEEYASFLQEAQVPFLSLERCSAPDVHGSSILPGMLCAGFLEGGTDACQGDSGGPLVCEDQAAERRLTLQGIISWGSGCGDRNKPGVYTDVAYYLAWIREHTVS

[2] = molecular target: T2, Factor XII (FXII, zymogen) (human, UniProt P00748 20-615); assay: nitrocellulose filter binding
T2 sequence: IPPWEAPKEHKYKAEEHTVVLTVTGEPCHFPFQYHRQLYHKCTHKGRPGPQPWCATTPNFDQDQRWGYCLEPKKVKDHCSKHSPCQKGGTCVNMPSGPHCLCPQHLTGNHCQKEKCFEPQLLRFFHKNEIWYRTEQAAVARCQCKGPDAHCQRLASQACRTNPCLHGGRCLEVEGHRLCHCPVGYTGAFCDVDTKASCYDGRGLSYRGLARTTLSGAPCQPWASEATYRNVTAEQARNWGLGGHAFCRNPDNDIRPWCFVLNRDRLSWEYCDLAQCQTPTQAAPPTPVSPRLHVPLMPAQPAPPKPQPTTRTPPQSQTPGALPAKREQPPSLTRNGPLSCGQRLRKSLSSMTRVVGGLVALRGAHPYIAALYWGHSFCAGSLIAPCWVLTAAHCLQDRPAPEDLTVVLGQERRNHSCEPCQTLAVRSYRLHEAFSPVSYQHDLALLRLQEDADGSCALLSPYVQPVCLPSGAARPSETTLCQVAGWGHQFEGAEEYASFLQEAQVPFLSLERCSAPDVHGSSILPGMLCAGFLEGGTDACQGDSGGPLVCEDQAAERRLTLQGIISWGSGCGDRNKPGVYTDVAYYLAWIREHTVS

[3] = molecular target: T1, Factor XIIa (alpha-FXIIa); assay: double-filter nitrocellulose binding
[4] = molecular target: T2, Factor XII (FXII, zymogen); assay: double-filter nitrocellulose binding
[5] = molecular target: T2, Factor XII (FXII, zymogen); assay: double-filter nitrocellulose binding; remark: listed apart in the source
[6] = molecular target: T1, Factor XIIa (alpha-FXIIa); assay: double-filter nitrocellulose binding; remark: listed apart in the source

B1: scrambled control RNA (XNA)
RNA: GGGGCAGCCGUGGACCGACUGCCGCAUGCCAUUGACAGUCCGAUGCCAGGC
modifications: all C and U are 2'-fluoro; A and G ribo
binding result [1]: no binding
binding result [2]: no binding

B2: R4cXII-1t (XNA)
RNA: GGCUCGGCUGCCAGCAGGUCACGAGUCGCAGCGACUCGCUGAGGAUCCGAG
modifications: all C and U are 2'-fluoro; A and G ribo
Kd [3]: 0.4 ± 0.02 nM
Kd [4]: 12.9 ± 2.06 nM

B3: R4cXII-1 (XNA)
RNA: GGGAGGACGAUGCGGCCAAAUCUCGGCUGCCAGCAGGUCACGAGUCGCAAGAUAACAGACGACUCGCUGAGGAUCCGAGA
modifications: all C and U are 2'-fluoro; A and G ribo
Kd [5]: 8.9 ± 1 nM
Kd [6]: 0.5 ± 0.2 nM
